Article PMC11025565 (Journal of molecular biology, 2021)
Substitutions are numbered along the chain they refer to. Names may count otherwise.

B1: integrin αIIb(A958-P998) transmembrane peptide (peptide)
chain: not shown
B2: integrin αIIb(A958-P998) transmembrane peptide with W968V (peptide, UniProt P08514 989-1029, looked up)
chain: ALEERAIPIWVVLVGVLGGLLLLTILVLAMWKVGFFKRNRP
B3: integrin αIIb(A958-P998) transmembrane peptide with G972A (peptide)
chain: not shown
B4: integrin αIIb(A958-P998) transmembrane peptide with G972S (peptide)
chain: not shown
B5: integrin αIIb(A958-P998) transmembrane peptide with P965A/W968V (peptide, UniProt P08514 989-1029, looked up)
chain: B2 chain with P8A
B6: integrin αIIb(A958-P998) transmembrane peptide with W968V/G972A (peptide, UniProt P08514 989-1029, looked up)
chain: B2 chain with G15A
B7: integrin αIIb(A958-P998) transmembrane peptide with W968V/G972S (peptide, UniProt P08514 989-1029, looked up)
chain: B2 chain with G15S
B8: integrin αIIb(A958-P998) transmembrane peptide with W968A (peptide, UniProt P08514 989-1029, looked up)
chain: B2 chain with V11A

Molecular target: T1, integrin β3(P685-F727) transmembrane peptide with C687S and I693A (human, UniProt P05106 711-753, C687S | I693A)
T1 chain (looked up): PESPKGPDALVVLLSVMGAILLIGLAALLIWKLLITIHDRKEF
Assay: ITC
For B1, the KXY was 9500 ± 500 and the dH was -13.9 ± 0.3 kcal/mol. B2 showed a KXY of 18600 ± 800 and a dH of -16 ± 0.2 kcal/mol.

Molecular target: T2, integrin β3(P685-F727) transmembrane peptide with C687S (human, UniProt P05106 711-753, C687S)
T2 chain (looked up): T1 chain (looked up) with A9I
Assay: ITC
Binder B2 has a KXY of 13200 ± 600 and a dH of -14.3 ± 0.2 kcal/mol. Work on B3 yielded a KXY of 1080 ± 30 and a dH of -14.2 ± 0.2 kcal/mol. With B4 the KXY was 810 ± 20 and the dH was -14.8 ± 0.2 kcal/mol. In the case of B5, the KXY is reported as 9700 ± 300 and the dH is reported as -14.6 ± 0.1 kcal/mol. Binder B6 has a KXY of 1570 ± 50 and a dH of -14.4 ± 0.2 kcal/mol. B7 was tested, and the KXY was 1300 ± 50 and the dH was -12.5 ± 0.3 kcal/mol. Work on B8 yielded a KXY of 14000 ± 1000 and a dH of -14.1 ± 0.3 kcal/mol.
